Reference: patent US20240181006A1, “POLYPEPTIDES BINDING ADAMTS5, MMP13 AND AGGRECAN” (Merck Patent GmbH, priority 2017, published 2024)

What was measured:
[1] = target: T1, human MMP1 (Homo sapiens, UniProt P03956); assay: FRET-based human MMP1 assay (selectivity of 02F03); format: biochemical; settings: data not shown
T1 sequence (P03956 100-469): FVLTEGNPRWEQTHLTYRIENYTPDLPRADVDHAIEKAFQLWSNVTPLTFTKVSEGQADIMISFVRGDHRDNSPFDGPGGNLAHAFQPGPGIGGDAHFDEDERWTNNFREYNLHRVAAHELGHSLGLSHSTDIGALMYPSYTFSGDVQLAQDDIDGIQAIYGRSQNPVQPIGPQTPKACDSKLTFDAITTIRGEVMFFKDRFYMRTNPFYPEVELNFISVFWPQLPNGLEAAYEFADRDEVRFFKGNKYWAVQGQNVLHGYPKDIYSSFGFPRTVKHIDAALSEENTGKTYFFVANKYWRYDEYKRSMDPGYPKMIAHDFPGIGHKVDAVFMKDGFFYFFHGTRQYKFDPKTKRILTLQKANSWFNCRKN
Description: (§1) To confirm the selectivity of ISVD 02F03 for ADAMTS5, inhibition of the enzymatic activity of MMP1, MMP14 and ADAMTS4 was evaluated via FRET-based assays and a human ADAMTS4 AlphaLISA, with the respective enzymes.
(§2) Activated human MMP1 or MMP14 was incubated for 30 minutes at room temperature with 10 μl of dilution series of ISVD 02F03. After incubation, 20 μl of respectively 5 μM or 2.5 μM fluorogenic peptide substrate (Mca-PLGL-Dpa-AR-NH2 Fluorogenic MMP Substrate (R&D Systems cat #ES001)) was added. The ability of ISVD 02F03 to prevent MMP1- and MMP14-mediated cleavage was monitored every minute for 2 hours at 37° C. on a Tecan Infinite M1000 plate reader.

[2] = target: T2, human MMP14 (Homo sapiens, UniProt P50281); assay: FRET-based human MMP14 assay (selectivity of 02F03); format: biochemical; settings: data not shown
Description: as §1, §2

[3] = system: Rat G1-IGD-G2; assay: periplasmic extract ELISA, rat Aggrecan G1-IGD-G2; format: binding
Description: (§3) After the primary screening, initial assessment of binding via ELISA, determination of off-rate and species cross-reactivity, ISVD 114F08 was subjected to further characterization.

[4] = target: T3, Bov G1-IGD-G2 (Bos taurus, UniProt P13608); assay: periplasmic extract ELISA, bovine Aggrecan G1-IGD-G2; format: binding
T3 construct: the recombinant G1-IGD-G2 region from human, cynomolgus, rat, dog and bovine Aggrecan
Description: as §3

[5] = target: T4, Dog G1-IGD-G2 (Canis lupus familiaris, UniProt Q28343); assay: periplasmic extract ELISA, dog Aggrecan G1-IGD-G2; format: binding
T4 construct: Dog G1-IGD-G2
Description: as §3

[6] = target: T5, Hu G1-IGD-G2 (Homo sapiens, UniProt P16112); assay: periplasmic extract ELISA, human Aggrecan G1-IGD-G2; format: binding
T5 construct: Hu G1-IGD-G2
Description: as §3

[7] = system: Cy G1-IGD-G2; assay: periplasmic extract ELISA, cynomolgus Aggrecan G1-IGD-G2; format: binding
Description: as §3

[8] = target: T2, human MMP14; assay: human MMP14 fluorogenic peptide assay (selectivity of 62C02); format: biochemical; settings: data not shown
Description: (§4) In brief, the setup of human, cynomolgus, rat, dog and bovine MMP13 fluorogenic peptide assays, as well as human MMP1 and MMP14 fluorogenic peptide assays is as follows. Activated MMP was incubated with fluorogenic peptide substrate Mca-PLGL-Dpa-AR-NH2 (R&D Systems #ES001) and a ⅕ dilution of periplasmic extract or a dilution series of purified Nanobody/positive control (total volume=20 μl in assay buffer 50 mM Tris pH 7.5, 100 mM NaCl, 10 mM CaCl2), 0.01% Tween20), for 2 h at 37° C. The linear increase of fluorescence (v0-between 15 and 45 min incubation) was used as a measure for the enzymatic activity and % inhibition was calculated with the formula 100-100 (v0 in the presence of test Nanobody/v0 in the presence of negative control Nanobody (Cablys)).
(§5) In order to determine the selectivity of ISVD 62C02 for MMP13, fluorogenic peptide assays for MMP1 and MMPP14 were used. MMP1 and MMP14 are two closely related MMP family members. TIMP-2 was used as positive control in these assays. A similar set up as described in Example 1.1 was used.

[9] = target: T1, human MMP1; assay: human MMP1 fluorogenic peptide assay (selectivity of 62C02); format: biochemical; settings: data not shown
Description: as §4, §5

T4 sequence (Q28343 20-693): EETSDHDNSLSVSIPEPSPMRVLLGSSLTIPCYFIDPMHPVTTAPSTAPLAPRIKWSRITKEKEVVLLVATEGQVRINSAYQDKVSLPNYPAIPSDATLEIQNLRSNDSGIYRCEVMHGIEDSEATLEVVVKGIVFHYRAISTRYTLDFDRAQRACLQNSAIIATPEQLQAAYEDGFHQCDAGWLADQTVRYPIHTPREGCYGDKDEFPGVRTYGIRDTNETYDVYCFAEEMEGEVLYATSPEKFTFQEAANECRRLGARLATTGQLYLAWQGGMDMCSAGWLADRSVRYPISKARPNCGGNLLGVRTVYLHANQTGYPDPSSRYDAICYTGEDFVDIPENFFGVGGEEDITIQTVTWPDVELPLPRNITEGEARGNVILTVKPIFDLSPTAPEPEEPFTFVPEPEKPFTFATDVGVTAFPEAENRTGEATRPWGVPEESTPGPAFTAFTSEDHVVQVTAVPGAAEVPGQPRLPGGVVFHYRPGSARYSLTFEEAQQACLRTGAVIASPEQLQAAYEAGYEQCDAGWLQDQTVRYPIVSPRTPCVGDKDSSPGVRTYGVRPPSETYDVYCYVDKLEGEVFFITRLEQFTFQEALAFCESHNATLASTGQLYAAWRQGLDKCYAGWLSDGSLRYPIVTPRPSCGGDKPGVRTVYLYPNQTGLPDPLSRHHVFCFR
Sequence of Rat G1-IGD-G2 (P07897 20-684 limits assumed): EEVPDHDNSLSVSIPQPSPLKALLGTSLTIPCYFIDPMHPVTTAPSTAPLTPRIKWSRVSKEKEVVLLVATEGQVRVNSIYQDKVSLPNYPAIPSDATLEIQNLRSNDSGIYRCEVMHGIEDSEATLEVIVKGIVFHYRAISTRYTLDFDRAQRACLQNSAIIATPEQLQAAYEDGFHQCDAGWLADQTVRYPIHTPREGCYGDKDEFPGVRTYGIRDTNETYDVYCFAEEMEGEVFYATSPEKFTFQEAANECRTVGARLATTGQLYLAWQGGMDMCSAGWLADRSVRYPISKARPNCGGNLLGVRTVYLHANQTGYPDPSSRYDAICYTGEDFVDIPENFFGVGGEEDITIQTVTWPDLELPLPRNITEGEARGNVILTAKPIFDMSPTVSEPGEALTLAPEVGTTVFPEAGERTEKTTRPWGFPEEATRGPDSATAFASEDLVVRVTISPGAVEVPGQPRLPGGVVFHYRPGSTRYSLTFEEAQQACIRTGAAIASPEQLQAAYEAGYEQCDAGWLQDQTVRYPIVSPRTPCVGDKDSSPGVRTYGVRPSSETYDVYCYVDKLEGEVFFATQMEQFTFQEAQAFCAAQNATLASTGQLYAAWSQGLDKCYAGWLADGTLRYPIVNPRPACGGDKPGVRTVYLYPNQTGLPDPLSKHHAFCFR
T5 sequence (P16112 20-676 limits assumed): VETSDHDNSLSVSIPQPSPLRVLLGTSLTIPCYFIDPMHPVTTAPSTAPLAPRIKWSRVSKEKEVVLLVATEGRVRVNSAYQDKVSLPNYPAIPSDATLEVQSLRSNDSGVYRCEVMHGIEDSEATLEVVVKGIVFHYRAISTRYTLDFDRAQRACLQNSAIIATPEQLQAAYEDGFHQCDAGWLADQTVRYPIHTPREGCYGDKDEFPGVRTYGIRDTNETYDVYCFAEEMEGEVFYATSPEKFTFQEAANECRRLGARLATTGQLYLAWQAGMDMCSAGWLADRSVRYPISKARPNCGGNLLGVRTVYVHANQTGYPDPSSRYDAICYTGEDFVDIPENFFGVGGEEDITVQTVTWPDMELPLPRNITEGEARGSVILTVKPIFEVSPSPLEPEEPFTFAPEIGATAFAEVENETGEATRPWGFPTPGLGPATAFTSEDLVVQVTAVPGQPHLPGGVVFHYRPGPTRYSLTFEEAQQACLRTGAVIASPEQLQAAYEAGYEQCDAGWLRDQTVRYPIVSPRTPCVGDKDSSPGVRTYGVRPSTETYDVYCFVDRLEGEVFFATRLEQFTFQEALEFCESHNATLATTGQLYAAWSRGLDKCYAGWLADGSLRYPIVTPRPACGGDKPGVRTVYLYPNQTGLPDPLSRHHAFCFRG
T3 sequence (P13608 20-685 limits assumed): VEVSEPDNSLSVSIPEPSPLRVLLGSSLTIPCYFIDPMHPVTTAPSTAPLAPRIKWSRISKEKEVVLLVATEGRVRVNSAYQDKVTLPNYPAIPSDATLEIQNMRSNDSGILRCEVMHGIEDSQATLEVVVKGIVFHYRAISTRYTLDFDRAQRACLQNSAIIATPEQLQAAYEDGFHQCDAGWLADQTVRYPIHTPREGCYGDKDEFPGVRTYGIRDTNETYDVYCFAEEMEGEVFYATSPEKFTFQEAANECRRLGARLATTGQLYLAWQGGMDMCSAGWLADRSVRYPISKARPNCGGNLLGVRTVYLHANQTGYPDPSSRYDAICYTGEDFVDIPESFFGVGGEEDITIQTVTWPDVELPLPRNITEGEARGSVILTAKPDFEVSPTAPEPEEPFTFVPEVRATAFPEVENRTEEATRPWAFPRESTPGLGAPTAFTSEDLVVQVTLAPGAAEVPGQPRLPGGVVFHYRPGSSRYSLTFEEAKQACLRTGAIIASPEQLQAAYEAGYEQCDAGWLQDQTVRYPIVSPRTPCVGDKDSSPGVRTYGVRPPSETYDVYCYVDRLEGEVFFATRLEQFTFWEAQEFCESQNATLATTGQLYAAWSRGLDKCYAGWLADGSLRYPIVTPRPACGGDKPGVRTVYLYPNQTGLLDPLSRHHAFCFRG

B1: TIMP3: natural inhibitor of MMP1 and MMP14 (protein)
chain: CTCSPSHPQDAFCNSDIVIRAKVVGKKLVKEGPFGTLVYTIKQMKMYRGFTKMPHVQYIHTEASESLCGLKLEVNKYQYLLTGRVYDGKMYTGLCNFVERWDQLTLSQRKGLNYRYHLGCNCKIKSCYYLPCFVTSKNECLWTDMLSNFGYPGYQSKHYACIRQKGGYCSWYRGWAPPDKSIINATDP
With B1 the “inhibition of MMP1 activity” value [1] was “inhibited” and the “inhibition of MMP14 activity” value [2] was “inhibited”.

B2: ISVD 114F08: Aggrecan-specific immunoglobulin single variable domain (CAP), binds G1 domain (protein)
VHH: EVQLVESGGGVVQPGGSLRLSCAASGSTFIINVVRWYRRAPGKQRELVATISSGGNANYVDSVRGRFTISRDNSKNTVYLQMNSLRPEDTALYYCNVPTTHYGGVYYGPYWGQGTLVTVSS
modifications: Description of Artificial Sequence: Synthetic anti-Aggrecan immunoglobulin single variable domain (ISVD)
With B2 the “Periplasmic extract ELISA OD 450 nm, Rat G1-IGD-G2” value [3] was 2.05, the “Periplasmic extract ELISA OD 450 nm, Bov G1-IGD-G2” value [4] was 1.18 and the “Periplasmic extract ELISA OD 450 nm, Dog G1-IGD-G2” value [5] was 1.90. The “Periplasmic extract ELISA OD 450 nm, Hu G1-IGD-G2” value [6] was 2.38 and the “Periplasmic extract ELISA OD 450 nm, Cy G1-IGD-G2” value [7] was 2.32.

B3: ISVD 62C02: MMP13 specific immunoglobulin single variable domain (protein)
VHH: EVQLVESGGGVVQPGGSLRLSCAASGFAFSAAYMSWVRQAPGKGLEWVSSISDDGSKTYYADSVKGRFTISRDNSKNTVYLQMNSLRPEDTALYYCNTGYGATTTRPGRYWGQGTLVTVSS
modifications: Description of Artificial Sequence: Synthetic anti-MMP13 immunoglobulin single variable domain (ISVD)
B3 was tested, and the MMP14 inhibition [8] was “no MMP1 or MMP14 inhibition” and the MMP1 inhibition [9] was “no MMP1 or MMP14 inhibition”.
